Source: patent US12269859B2, “Synthetic immune receptors and methods of use thereof” (Angeles Therapeutics, Inc., priority 2016, dated 2025)

Tested on: target antigen-expressing cell line
Assay: Jurkat NFAT-GFP assay, coculture with target cell lines expressing the respective target antigen (summary Table 10A)
Type: cell-based, human
Design: key: The signs +/−, +, 2+ etc. after the name of the cell lines indicate the relative degree of positivity on the Jurkat-NFAT-GFP assay as measured by the % GFP positive cells; +: relative degree of positivity on the Jurkat-NFAT-GFP assay as measured by the % GFP positive cells; 2+: relative degree of positivity on the Jurkat-NFAT-GFP assay as measured by the % GFP positive cells
Outline: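 Jurkat cells carrying an NFAT-site IL-2 promoter driving GFP were lentivirally transduced with SIRs, puromycin-selected, then cocultured with antigen-expressing target cells at E:T about 1:2 for about 4–18 hours. GFP induction was read by flow cytometry as % GFP-positive cells versus parental Jurkat-NFAT-GFP.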

[1] = coculture with TF228.1.1.6 cells

Molecule | NFAT-GFP ASSAY Positive Cell lines (coculture with HL2-3 cells) | NFAT-GFP ASSAY Positive Cell lines [1] | NFAT-GFP ASSAY Positive Cell lines (coculture with U266 cells) | NFAT-GFP ASSAY Positive Cell lines (coculture with U87-MG (U87MG) cells)
091616-X01 (protein, Synthetic Immune Receptor (SIR)) MALPVTALLLPLALLLHAARPELVLTQSPGTLSLSAGERATLSCRASQSVSSGSLAWYQQKPGQAPRLLIYGASTRATGIPDRFSGSGSGTDFTLTIGRLEPEDLAVYYCQQYGTSPYTFGQGTKLEILEEQKLISEEDLGSGEDLKNVFPPEVAVFEPSKAEIAHTQKATLVCLATGFYPDHVELSWWVNGKEVHSGVCTDPQPLKEQPALNDSRYCLSSRLRVSATFWQNPRNHFRCQVQFYGLSENDEWTQDRAKPVTQIVSAEAWGRADCGITSASYHQGVLSATILYEILLGKATLYAVLVSALVLMAMVKRKDSRGRAKRSGSGATNFSLLKQAGDVEENPGPTSMDWIWRILFLVGAATGAHSFELEQSGAEVKKPGSSVQVSCKASGGTFSMYGFNWVRQAPGHGLEWMGGIIPIFGTSNYAQKFRGRVTFTADQATSTAYMELTNLRSDDTAVYYCARDFGPDWEDGDSYDGSGRGFFDFWGQGTLVTVSSTREQKLISEEDGSGIQNPDPAVYQLRDSKSSDKSVCLFTDFDSQTNVSQSKDSDVYITDKCVLDMRSMDFKSNSAVAWSNKSDFACANAFNNSIIPEDTFFPSSDVPCDVKLVEKSFETDTNLNFQNLSVIGFRILLLKVAGFNLLMTLRLWSSRAKRSGSGVKQTLNFDLLKLAGDVESNPGPSRGHMTEYKPTVRLATRDDVPRAVRTLAAAFADYPATRHTVDPDRHIERVTELQELFLTRVGLDIGKVWVADDGAAVAVWTTPESVEAGAVFAEIGPRMAELSGSRLAAQQQMEGLLAPHRPKEPAWFLATVGVSPDHQGKGLGSAVVLPGVEAAERAGVPAFLETSAPRNLPFYERLGFTVTADVEVPEGPRTWCMTRKPGA | HL2-3 (+/−) | TF228.1.1.6 (+), |  | 
091616-Y01 (protein, Synthetic Immune Receptor (SIR)) MALPVTALLLPLALLLHAARPDIQMTQSPSSLSASVGDTVTITCQANGYLNWYQQRRGKAPKLLIYDGSKLERGVPSRFSGRRWGQEYNLTINNLQPEDIATYFCQVYEFVVPGTRLDLKRTVAAPLEEQKLISEEDLGSGEDLKNVFPPEVAVFEPSKAEIAHTQKATLVCLATGFYPDHVELSWWVNGKEVHSGVCTDPQPLKEQPALNDSRYCLSSRLRVSATFWQNPRNHFRCQVQFYGLSENDEWTQDRAKPVTQIVSAEAWGRADCGITSASYHQGVLSATILYEILLGKATLYAVLVSALVLMAMVKRKDSRGRAKRSGSGATNFSLLKQAGDVEENPGPTSMDWIWRILFLVGAATGAHSFEQVQLLQSGAAVTKPGASVRVSCEASGYNIRDYFIHWWRQAPGQGLQWVGWINPKTGQPNNPRQFQGRVSLTRHASWDFDTFSFYMDLKALRSDDTAVYFCARQRSDYWDFDVWGSGTQVTVSSASTKGPTREQKLISEEDGSGIQNPDPAVYQLRDSKSSDKSVCLFTDFDSQTNVSQSKDSDVYITDKCVLDMRSMDFKSNSAVAWSNKSDFACANAFNNSIIPEDTFFPSSDVPCDVKLVEKSFETDTNLNFQNLSVIGFRILLLKVAGFNLLMTLRLWSSRAKRSGSGVKQTLNFDLLKLAGDVESNPGPSRGHMTEYKPTVRLATRDDVPRAVRTLAAAFADYPATRHTVDPDRHIERVTELQELFLTRVGLDIGKVWVADDGAAVAVWTTPESVEAGAVFAEIGPRMAELSGSRLAAQQQMEGLLAPHRPKEPAWFLATVGVSPDHQGKGLGSAVVLPGVEAAERAGVPAFLETSAPRNLPFYERLGFTVTADVEVPEGPRTWCMTRKPGA | HL2-3 (+/−) |  |  | 
121416-H05 (protein, Polynucleotide encoding a Synthetic Immune Receptor (SIR)) MALPVTALLLPLALLLHAARPLEGKPIPNPLLGLDSTGSGEDLKNVFPPEVAVFEPSKAEIAHTQKATLVCLATGFYPDHVELSWWVNGKEVHSGVCTDPQPLKEQPALNDSRYCLSSRLRVSATFWQNPRNHFRCQVQFYGLSENDEWTQDRAKPVTQIVSAEAWGRADCGITSASYHQGVLSATILYEILLGKATLYAVLVSALVLMAMVKRKDSRGRAKRSGSGATNFSLLKQAGDVEENPGPTSMALPVTALLLPLALLLHAARPDYIHVTQSPSSLSVSIGDRVTINCQTSQGVGSDLHWYQHKPGRAPKLLIHHASSVEDGVPSRFSGTGFHTSFNLTINDLQADDIGTYYCQVLQSFGRGSRLDTKGGGGSGGGGSGGGGSRAHLVQSGTAMKKPGASVRVSCQTSGYTFTAHILFWFRQAPGRGLEWVGWIKPQYGAVNFGGGFRDRVTLTRDVYREIAYMDIRGLKPDDTAVYYCARDRSYGDSSWALDAWGQGTTVVVSATREQKLISEEDGSGIQNPDPAVYQLRDSKSSDKSVCLFTDFDSQTNVSQSKDSDVYITDKCVLDMRSMDFKSNSAVAWSNKSDFACANAFNNSIIPEDTFFPSSDVPCDVKLVEKSFETDTNLNFQNLSVIGFRILLLKVAGFNLLMTLRLWSSRAKRSGSGVKQTLNFDLLKLAGDVESNPGPSRGHMTEYKPTVRLATRDDVPRAVRTLAAAFADYPATRHTVDPDRHIERVTELQELFLTRVGLDIGKVWVADDGAAVAVWTTPESVEAGAVFAEIGPRMAELSGSRLAAQQQMEGLLAPHRPKEPAWFLATVGVSPDHQGKGLGSAVVLPGVEAAERAGVPAFLETSAPRNLPFYERLGFTVTADVEVPEGPRTWCMTRKPGA | HL2-3 (+/−), | TF228.1.1.6 (+/−) |  | 
071417-W08 (protein) MALPVTALLLPLALLLHAARPLEGKPIPNPLLGLDSTGSGEDLKNVFPPEVAVFEPSKAEIAHTQKATLVCLATGFYPDHVELSWWVNGKEVHSGVCTDPQPLKEQPALNDSRYCLSSRLRVSATFWQNPRNHFRCQVQFYGLSENDEWTQDRAKPVTQIVSAEAWGRADCGITSASYHQGVLSATILYEILLGKATLYAVLVSALVLMAMVKRKDSRGRAKRSGSGATNFSLLKQAGDVEENPGPTSMALPVTALLLPLALLLHAARPDVMLTQTPLSLPVSLGDQASISCRSSQSILHSTGDTYLEWYLQKPGQSPKLLINKVSNRLSGVPDRFSGSGSGTDFTLKISRVEAEDLGVYYCFQGSHVPWTFGGGTKLEIKRADAAPTVSIFPGGGGSGGGGSGGGGSQVKLQQSGPSLVKPGASVKMSCKASGYTFTDFYMKWVKQSHGKSLEWIGDINPNIGDTFYNQKFKGKATLTVDKSSSTAYMQLNSLTSEDSAVYFCSVGYFDVWGAGTTVTVSSTREQKLISEEDGSGIQNPDPAVYQLRDSKSSDKSVCLFTDFDSQTNVSQSKDSDVYITDKCVLDMRSMDFKSNSAVAWSNKSDFACANAFNNSIIPEDTFFPSSDVPCDVKLVEKSFETDTNLNFQNLSVIGFRILLLKVAGFNLLMTLRLWSSRAKRSGSGVKQTLNFDLLKLAGDVESNPGPSRGHMTEYKPTVRLATRDDVPRAVRTLAAAFADYPATRHTVDPDRHIERVTELQELFLTRVGLDIGKVWVADDGAAVAVWTTPESVEAGAVFAEIGPRMAELSGSRLAAQQQMEGLLAPHRPKEPAWFLATVGVSPDHQGKGLGSAVVLPGVEAAERAGVPAFLETSAPRNLPFYERLGFTVTADVEVPEGPRTWCMTRKPGA |  |  | U266 (+/−) | 
121416-D03 (protein, Synthetic Immune Receptor (SIR)) MALPVTALLLPLALLLHAARPLEQKLISEEDLGSGDRPDPAVYQLRDSKSSDKSVCLFTDFDSQTNVSQSKDSDVYITDKCVLDMRSMDFKSNSAVAWSNKSDFACANAFNNSIIPEDTFFPSPESSCDVKLVEKSFETDTNLNFQNLSVIGFRILLLKVAGFNLLMTLRLWSSSSRAKRSGSGVKQTLNFDLLKLAGDVESNPGPTSMALPVTALLLPLALLLHAARPDYIHVTQSPSSLSVSIGDRVTINCQTSQGVGSDLHWYQHKPGRAPKLLIHHASSVEDGVPSRFSGTGFHTSFNLTINDLQADDIGTYYCQVLQSFGRGSRLDTKGGGGSGGGGSGGGGSRAHLVQSGTAMKKPGASVRVSCQTSGYTFTAHILFWFRQAPGRGLEWVGWIKPQYGAVNFGGGFRDRVTLTRDVYREIAYMDIRGLKPDDTAVYYCARDRSYGDSSWALDAWGQGTTVVVSATRGKPIPNPLLGLDSTGSGEDLKNVFPPEVAVFEPSEAEISHTQKATLVCLATGFYPDHVELSWWVNGKEVHSGVCTDPQPLKEQPALNDSRYCLSSRLRVSATFWQNPRNHFRCQVQFYGLSENDEWTQDRAKPVTQIVSAEAWGRADCGFTSESYQQGVLSATILYEILLGKATLYAVLVSALVLMAMVKRKDSRGRAKRSGSGATNFSLLKQAGDVEENPGPSRGHMTEYKPTVRLATRDDVPRAVRTLAAAFADYPATRHTVDPDRHIERVTELQELFLTRVGLDIGKVWVADDGAAVAVWTTPESVEAGAVFAEIGPRMAELSGSRLAAQQQMEGLLAPHRPKEPAWFLATVGVSPDHQGKGLGSAVVLPGVEAAERAGVPAFLETSAPRNLPFYERLGFTVTADVEVPEGPRTWCMTRKPGA | HL2-3 (+/−), | TF228.1.1.6 (+) |  | 
042916-B04 (protein, Synthetic Immune Receptor (SIR)) MALPVTALLLPLALLLHAARPLEGKPIPNPLLGLDSTGSGEDLKNVFPPEVAVFEPSKAEIAHTQKATLVCLATGFYPDHVELSWWVNGKEVHSGVCTDPQPLKEQPALNDSRYCLSSRLRVSATFWQNPRNHFRCQVQFYGLSENDEWTQDRAKPVTQIVSAEAWGRADCGITSASYHQGVLSATILYEILLGKATLYAVLVSALVLMAMVKRKDSRGRAKRSGSGATNFSLLKQAGDVEENPGPTSTMALPVTALLLPLALLLHAARPDIQMTQSPSSLSASVGDRVTITCTASLSVSSTYLHWYQQKPGSSPKLWIYSTSNLASGVPSRFSGSGSGTSYTLTISSLQPEDFATYYCHQYHRSPLTFGGGTKVEIKRGGGGSGGGGSGGGGSEVQLVESGGGLVQPGGSLRLSCAASGFSLTKYGVHWVRQAPGKGLEWVGVKWAGGSTDYNSALMSRFTISKDNAKNSLYLQMNSLRAEDTAVYYCARDHRDAMDYWGQGTLVTVSSTREQKLISEEDGSGIQNPDPAVYQLRDSKSSDKSVCLFTDFDSQTNVSQSKDSDVYITDKCVLDMRSMDFKSNSAVAWSNKSDFACANAFNNSIIPEDTFFPSSDVPCDVKLVEKSFETDTNLNFQNLSVIGFRILLLKVAGFNLLMTLRLWSSRAKRSGSGVKQTLNFDLLKLAGDVESNPGPSRGHMTEYKPTVRLATRDDVPRAVRTLAAAFADYPATRHTVDPDRHIERVTELQELFLTRVGLDIGKVWVADDGAAVAVWTTPESVEAGAVFAEIGPRMAELSGSRLAAQQQMEGLLAPHRPKEPAWFLATVGVSPDHQGKGLGSAVVLPGVEAAERAGVPAFLETSAPRNLPFYERLGFTVTADVEVPEGPRTWCMTRKPGA |  |  |  | U87MG
